Reference: IntAct's records for PubMed 29039417

B1: Protein PTHB1 (Homo sapiens), Q3SYG4 (parent)
chain: MSLFKARDWWSTILGDKEEFDQGCLCLANVDNSGNGQDKIIVGSFMGYLRIFSPHPAKTGDGAQAEDLLLEVDLRDPVLQVEVGKFVSGTEMLHLAVLHSRKLCVYSVSGTLGNVEHGNQCQMKLMYEHNLQRTACNMTYGSFGGVKGRDLICIQSMDGMLMVFEQESYAFGRFLPGFLLPGPLAYSSRTDSFLTVSSCQQVESYKYQVLAFATDADKRQETEQQKLGSGKRLVVDWTLNIGEQALDICIVSFNQSASSVFVLGERNFFCLKDNGQIRFMKKLDWSPSCFLPYCSVSEGTINTLIGNHNNMLHIYQDVTLKWATQLPHIPVAVRVGCLHDLKGVIVTLSDDGHLQCSYLGTDPSLFQAPNVQSRELNYDELDVEMKELQKIIKDVNKSQGVWPMTEREDDLNVSVVVSPNFDSVSQATDVEVGTDLVPSVTVKVTLQNRVILQKAKLSVYVQPPLELTCDQFTFEFMTPDLTRTVSFSVYLKRSYTPSELEGNAVVSYSRPTDRNPDGIPRVIQCKFRLPLKLICLPGQPSKTASHKITIDTNKSPVSLLSLFPGFASQSDDDQVNVMGFHFLGGARITVLASKTSQRYRIQSEQFEDLWLITNELILRLQEYFEKQGVKDFACSFSGSIPLQEYFELIDHHFELRINGEKLEELLSERAVQFRAIQRRLLARFKDKTPAPLQHLDTLLDGTYKQVIALADAVEENQGNLFQSFTRLKSATHLVILLIALWQKLSADQVAILEAAFLPLQEDTQELGWEETVDAAISHLLKTCLSKSSKEQALNLNSQLNIPKDTSQLKKHITLLCDRLSKGGRLCLSTDAAAPQTMVMPGGCTTIPESDLEERSVEQDSTELFTNHRHLTAETPRPEVSPLQGVSE
partner: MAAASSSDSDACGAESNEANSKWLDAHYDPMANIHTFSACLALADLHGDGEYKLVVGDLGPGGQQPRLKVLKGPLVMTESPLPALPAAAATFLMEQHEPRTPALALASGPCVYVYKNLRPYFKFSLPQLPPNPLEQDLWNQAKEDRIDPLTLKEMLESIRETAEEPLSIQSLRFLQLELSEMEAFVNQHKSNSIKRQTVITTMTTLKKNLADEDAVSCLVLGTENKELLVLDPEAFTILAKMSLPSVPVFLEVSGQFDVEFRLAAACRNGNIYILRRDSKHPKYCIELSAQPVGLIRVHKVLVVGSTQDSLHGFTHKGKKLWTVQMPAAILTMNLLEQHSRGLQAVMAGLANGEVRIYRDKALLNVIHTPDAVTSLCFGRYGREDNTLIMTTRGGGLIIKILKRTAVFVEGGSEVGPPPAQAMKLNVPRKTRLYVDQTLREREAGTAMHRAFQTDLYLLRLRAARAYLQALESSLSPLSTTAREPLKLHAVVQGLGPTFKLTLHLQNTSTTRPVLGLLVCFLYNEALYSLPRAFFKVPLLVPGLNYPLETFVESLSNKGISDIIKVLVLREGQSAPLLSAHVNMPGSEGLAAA

Variants of: B1
Conditions: with bbs1_human BBS1, Q8NFJ9

Variant	effect of a mutation on the interaction
E714A	with no effect
E714K	with no effect
K704A	with no effect
H652K	with no effect
H652A	with no effect
S820E	with no effect
L616A	with no effect
E660K	with no effect
V413A	with no effect
N866A	with no effect
F721K	with no effect
K743A	with no effect
V450K	with no effect
K492E	with no effect
H778E	disrupting interaction strength
L481A	with no effect
P758K	with no effect
F624K	with no effect
W741E	with no effect
W741S	disrupting interaction strength
K810E	with no effect
F632A	with no effect
F673E	with no effect

Variant	effect of a mutation on the interaction
K685E	with no effect
E604V	disrupting interaction strength
I649K	with no effect
K626A	with no effect
A712K	with no effect
D686E	with no effect
D470K	with no effect
D470E	with no effect
K526A	with no effect
V734E	with no effect
F563K	with no effect
M839A	with no effect
S828E	with no effect
V575K	with no effect
S425A	with no effect
L752E	with no effect
L779K	with no effect
A427E	with no effect
L620A	with no effect
K786A	with no effect
L815K	with no effect
S855K	with no effect
S855A	with no effect

Variant	effect of a mutation on the interaction
F421E	with no effect
S570E	with no effect
V440A	with no effect
L709E	with no effect
C634S	disrupting interaction strength
L465A	with no effect
V590A	with no effect
V590E	with no effect
Y460E	with no effect
Y490E	with no effect
P463A	with no effect
L536A	with no effect
K547E	with no effect
N448A	with no effect
Y599K	with no effect
S593A	with no effect
G538K	with no effect
K554S	disrupting interaction strength
R407E	with no effect
Q742E	with no effect
Q742A	with no effect
L680K	with no effect
T405A	with no effect

Variant	effect of a mutation on the interaction
E622K	disrupting interaction strength
E622A	with no effect
G718K	with no effect
G659A	with no effect
R868A	with no effect
T589E	with no effect
D650E	with no effect
C843K	with no effect
C843A	with no effect
C843E	with no effect
S785A	with no effect
S785K	with no effect
G767A	with no effect
A455E	with no effect
L642E	with no effect
T552E	with no effect
I738K	disrupting interaction strength
E765K	with no effect
D747A	with no effect
T478K	with no effect
K803A	with no effect
V522K	with no effect
M837K	with no effect

Variant	effect of a mutation on the interaction
S777E	with no effect
S777K	with no effect
G884A	with no effect
Q426K	with no effect
R656E	with no effect
C469K	with no effect
R824E	with no effect
S486E	with no effect
G565P	disrupting interaction strength
G565A	with no effect
S787E	with no effect
G701K	with no effect
G701E	disrupting interaction strength
G701A	with no effect
R726E	with no effect
R726K	with no effect
S568K	with no effect
I612K	with no effect
P520A	with no effect
A710K	with no effect
K728A	with no effect
V415A	with no effect
E878A	with no effect

Variant	effect of a mutation on the interaction
L740A	with no effect
L740K	with no effect
V432K	with no effect
V416K	with no effect
T441E	with no effect
W768E	with no effect
V885K	with no effect
V417E	with no effect
R818K	with no effect
L757K	with no effect
I676A	with no effect
I676K	with no effect
Q602A	with no effect
H694A	with no effect
I548K	with no effect
N658K	with no effect
D631K	with no effect
D631A	with no effect
I801E	with no effect
K789A	with no effect
L698E	with no effect
T763A	with no effect
Q539E	with no effect

Variant	effect of a mutation on the interaction
T496A	with no effect
R854K	with no effect
P516E	with no effect
H651A	with no effect
P802E	with no effect
P802K	with no effect
Q807K	with no effect
K594A	with no effect
K594E	with no effect
T688E	with no effect
R619A	with no effect
G841A	with no effect
L814E	with no effect
L766K	with no effect
G502R	disrupting interaction strength
H546E	with no effect
E607A	with no effect
E607K	with no effect
T445K	with no effect
T813K	with no effect
K454A	with no effect
H581K	with no effect
A682K	with no effect

Variant	effect of a mutation on the interaction
T782K	with no effect
L611A	with no effect
V772E	with no effect
P840K	disrupting interaction strength
F566E	with no effect
S639E	with no effect
P511E	with no effect
Y703A	with no effect
D762A	with no effect
D762K	with no effect
S541A	with no effect
K542A	with no effect
L737K	with no effect
Y645A	with no effect
L799E	with no effect
L744K	with no effect
E615A	with no effect
K443A	with no effect
K443E	with no effect
R449K	with no effect
L411K	with no effect
T731E	with no effect
